Measured values published in patent publication US20100254993A1 (Novartis, published 2010).
Residue numbers refer to the chain shown, from its start.

T1: recombinant human interleukin-4 (human, UniProt P05112 25-153)
T1 construct: Recombinant human IL-4 applied in solution over antibody captured by anti-human IgG (BIAcore); also called rhIL-4; human IL-4
T1 sequence (looked up): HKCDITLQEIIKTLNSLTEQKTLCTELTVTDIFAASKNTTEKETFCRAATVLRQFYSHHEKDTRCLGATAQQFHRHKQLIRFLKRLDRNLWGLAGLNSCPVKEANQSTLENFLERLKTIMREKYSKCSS

B1: Example 3 antibody comprising SEQ ID NO:17 and SEQ ID NO:18 (antibody, human IgG1, V domains shown)
VH: QVQLVESGGGMVQPGRSLRLSCAASGFTLSSYGMHWVRQAPGKGLEWVTVIWYDGNNQYYADSVKGRFTISRDNSKNTLYLQMNSLRAEDTAVYYCAREGSWSPDIFDIWGQGTMVTVSS
VL: AIQLTQSPSSLSASVGDRVTITCRASQGISSYLAWYQQKPGKAPKLLIYDASSLESGVPSRFSGSGSGTDFTLTISSLQPEDFATYYCQQFNSYPITFGQGTRLEIKR
notes: also called Ex. 3
B2: Example 1 antibody comprising SEQ ID NO:1 and SEQ ID NO:2 (human IL-4 specific monoclonal antibody) (antibody, human IgG1, V domains shown)
VH: B1 VH with M11V, L29F, G33A, V50F, Y53D, N56S, N57F, Q58K, D62E
VL: B1 VL with S31R, Y32A
notes: also called Ex. 1; mAb as defined by CDRs as described in claim 2a)
B3: Example 2 antibody comprising SEQ ID NO:9 and SEQ ID NO:10 (antibody, human IgG1, V domains shown)
VH: B1 VH with M11V, Y32F, T49A, N56S, Q58E, I70T
VL: B1 VL with A25T, S30R, Y32A, K39N, I96V
notes: also called Ex. 2
B4: Example 4 antibody comprising SEQ ID NO:25 and SEQ ID NO:26 (antibody, human IgG1, V domains shown)
VH: QVQLVQSGAEVKKPGSSVKVSCKASGDTFSSYAISWVRQAPGQGFEWMGGIIPVIGTVNYEERFQDRVTITADNSTSTAYMELTSLRSEDTAVYFCGREEGFLDYWGQGTLVTVSS
VL: AIQLTQSPSSLSASVGDRVTITCRASQGISSALAWYQQKPGKAPKLLIYDASSLESGVPSRFSGSGSGTDFTLTISSLQPEDFATYYCQQFNSYPLLTFGGGTKVEIKR
notes: also called Ex. 4
B5: Example 5 antibody comprising SEQ ID NO:33 and SEQ ID NO:34 (antibody, human IgG1, V domains shown)
VH: QVQLVESGGGVVQPGRSLRLSCAASGFTFSCCGMHWVRQAPGKGLEWVAVIWYDGSNKYYADSVKGRFTISRDTSKNTLYLQMNSLRAEDTAVYYCATDSSGSFYEYFQHWGQGTLVTVSS
VL: B1 VL with S30N, Y32A, I96Y, R103K
notes: also called Ex. 5

These binders were tested against T1, recombinant human interleukin-4 (assay: SPR (BIAcore 2000), mAb captured on anti-human IgG CM-5 chip, rhIL-4 as analyte).
Protocol: Affinity measurements of human mAbs of the present invention are carried on a BIAcore™ 2000 instrument. […] A subsequent application of rhIL-4 results in a further change of the refractory properties, which allows determination of the association rate (Kₒₙ, on rate) as well as the dissociation rate (Koff, off rate) and the […] of these two, the affinity (Kd, dissociation constant, given in pM), according to the BIAevaluation 3.0 software.

Row | Binder | Kd [nM]
1 | B1 | 0.089
2 | B2 | 0.043
3 | B3 | 0.059
4 | B4 | 0.066
5 | B5 | 0.084

These binders were tested against T1, recombinant human interleukin-4 (assay: cell-based or functional assay).

Row | Binder | BAF cell proliferation IC50 [nM] | IL-4 induced CD23 IC50 [nM] | IL-4 induced IgE IC50 [nM]
6 | B1 | 0.084 | 0.873 | 7.81
7 | B2 | 0.03 | 0.334 | 2.81
8 | B3 | 0.05 | 0.463 | 5.34
9 | B4 | 0.688 | 0.848 | 7.57
10 | B5 | 0.218 | 2.83 | 9.94
